The record followed here is FireProtDB (doi:10.1073/pnas.0711253105).

Several values for one entry are separate records, joined by “and”; a condition that tells them apart may be missing. Identical values can stand only once.

Sequence of Beta-1 adrenergic receptor R68S|M90V|V230A|F327A|A334L, P07700 R68S M90V V230A F327A A334L (P07700 whole entry R68S/M90V/V230A/F327A/A334L): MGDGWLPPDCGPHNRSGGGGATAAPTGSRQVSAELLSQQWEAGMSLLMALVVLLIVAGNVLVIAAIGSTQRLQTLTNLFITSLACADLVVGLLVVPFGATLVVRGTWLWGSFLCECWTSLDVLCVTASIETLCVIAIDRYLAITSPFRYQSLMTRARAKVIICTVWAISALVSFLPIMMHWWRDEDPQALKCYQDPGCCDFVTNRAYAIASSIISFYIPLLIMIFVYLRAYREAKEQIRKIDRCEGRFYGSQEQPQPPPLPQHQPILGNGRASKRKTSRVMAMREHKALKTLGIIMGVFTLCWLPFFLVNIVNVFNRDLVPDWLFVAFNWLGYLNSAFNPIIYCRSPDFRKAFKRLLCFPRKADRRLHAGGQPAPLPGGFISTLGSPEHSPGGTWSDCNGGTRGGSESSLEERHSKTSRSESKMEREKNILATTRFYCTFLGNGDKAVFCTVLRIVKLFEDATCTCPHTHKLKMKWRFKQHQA
Sequence of Beta-1 adrenergic receptor R68S|A234L|A334L, P07700 R68S A234L A334L (P07700 whole entry R68S/A234L/A334L): as the sequence (P07700 whole entry R68S/M90V/V230A/F327A/A334L) above, with V90M, A230V, A234L, A327F counted along it
Sequence of Beta-1 adrenergic receptor R68S|M90V|V230A|A334L, P07700 R68S M90V V230A A334L (P07700 whole entry R68S/M90V/V230A/A334L): as the sequence (P07700 whole entry R68S/M90V/V230A/F327A/A334L) above, with A327F counted along it
Sequence of Beta-1 adrenergic receptor M90V|Y227A, P07700 M90V Y227A (P07700 whole entry M90V/Y227A): as the sequence (P07700 whole entry R68S/M90V/V230A/F327A/A334L) above, with S68R, Y227A, A230V, A327F, L334A counted along it
Sequence of Beta-1 adrenergic receptor G67A|G98A|V230A|D322A, P07700 G67A G98A V230A D322A (P07700 whole entry G67A/G98A/V230A/D322A): as the sequence (P07700 whole entry R68S/M90V/V230A/F327A/A334L) above, with G67A, S68R, V90M, G98A, D322A, A327F, L334A counted along it
Sequence of Beta-1 adrenergic receptor R68S|Y227A|A234L|A282L, P07700 R68S Y227A A234L A282L (P07700 whole entry R68S/Y227A/A234L/A282L): as the sequence (P07700 whole entry R68S/M90V/V230A/F327A/A334L) above, with V90M, Y227A, A230V, A234L, A282L, A327F, L334A counted along it
Sequence of Beta-1 adrenergic receptor R68S|M90V|Y227A|V230A|F327A|F338M, P07700 R68S M90V Y227A V230A F327A F338M (P07700 whole entry R68S/M90V/Y227A/V230A/F327A/F338M): as the sequence (P07700 whole entry R68S/M90V/V230A/F327A/A334L) above, with Y227A, L334A, F338M counted along it
Sequence of Beta-1 adrenergic receptor G67A|G98A|V230A, P07700 G67A G98A V230A (P07700 whole entry G67A/G98A/V230A): as the sequence (P07700 whole entry R68S/M90V/V230A/F327A/A334L) above, with G67A, S68R, V90M, G98A, A327F, L334A counted along it
Sequence of Beta-1 adrenergic receptor M90V|I129V, P07700 M90V I129V (P07700 whole entry M90V/I129V): as the sequence (P07700 whole entry R68S/M90V/V230A/F327A/A334L) above, with S68R, I129V, A230V, A327F, L334A counted along it
Sequence of Beta-1 adrenergic receptor G67A|G98A, P07700 G67A G98A (P07700 whole entry G67A/G98A): as the sequence (P07700 whole entry R68S/M90V/V230A/F327A/A334L) above, with G67A, S68R, V90M, G98A, A230V, A327F, L334A counted along it
Sequence of Beta-1 adrenergic receptor R68S|Y227A|A234L|A334L, P07700 R68S Y227A A234L A334L (P07700 whole entry R68S/Y227A/A234L/A334L): as the sequence (P07700 whole entry R68S/M90V/V230A/F327A/A334L) above, with V90M, Y227A, A230V, A234L, A327F counted along it
Sequence of Beta-1 adrenergic receptor R68S|M90V|Y227A|V230A|F327A|A334L, P07700 R68S M90V Y227A V230A F327A A334L (P07700 whole entry R68S/M90V/Y227A/V230A/F327A/A334L): as the sequence (P07700 whole entry R68S/M90V/V230A/F327A/A334L) above, with Y227A counted along it
Sequence of Beta-1 adrenergic receptor M90V|F338M, P07700 M90V F338M (P07700 whole entry M90V/F338M): as the sequence (P07700 whole entry R68S/M90V/V230A/F327A/A334L) above, with S68R, A230V, A327F, L334A, F338M counted along it
Sequence of Beta-1 adrenergic receptor Y227A|A234L|A334L, P07700 Y227A A234L A334L (P07700 whole entry Y227A/A234L/A334L): as the sequence (P07700 whole entry R68S/M90V/V230A/F327A/A334L) above, with S68R, V90M, Y227A, A230V, A234L, A327F counted along it
Sequence of Beta-1 adrenergic receptor G98A|D322A, P07700 G98A D322A (P07700 whole entry G98A/D322A): as the sequence (P07700 whole entry R68S/M90V/V230A/F327A/A334L) above, with S68R, V90M, G98A, A230V, D322A, A327F, L334A counted along it
Sequence of Beta-1 adrenergic receptor M90V|Y227A|F338M, P07700 M90V Y227A F338M (P07700 whole entry M90V/Y227A/F338M): as the sequence (P07700 whole entry R68S/M90V/V230A/F327A/A334L) above, with S68R, Y227A, A230V, A327F, L334A, F338M counted along it
Sequence of Beta-1 adrenergic receptor R68S|A334L, P07700 R68S A334L (P07700 whole entry R68S/A334L): as the sequence (P07700 whole entry R68S/M90V/V230A/F327A/A334L) above, with V90M, A230V, A327F counted along it

The conditions of the series: Meleagris gallopavo; pH 8; Thermal; Activity; Tris 20 mM; NaCl 0.4 M; structure 2VT4.
In the case of “Beta-1 adrenergic receptor G67A|G98A|V230A, P07700 G67A G98A V230A”, the Tm worked out at 38 °C and the “change of melting temperature, mutant - wild type (higher = more stable)” value (shortened to “change of melting temperature, mutant”) worked out at 6.3 °C.

As for “Beta-1 adrenergic receptor R68S|Y227A|A234L|A334L, P07700 R68S Y227A A234L A334L”, the Tm came out at 43.7 °C and the “change of melting temperature, mutant” value is 12 °C.

As for “Beta-1 adrenergic receptor M90V|Y227A, P07700 M90V Y227A”, the Tm turned out to be 45.2 °C and the “change of melting temperature, mutant” value turned out to be 13.5 °C.

For the substance “Beta-1 adrenergic receptor R68S|M90V|Y227A|V230A|F327A|F338M, P07700 R68S M90V Y227A V230A F327A F338M”, the Tm came out at 49 °C and the “change of melting temperature, mutant” value was 17.3 °C.

Take “Beta-1 adrenergic receptor R68S|M90V|V230A|A334L, P07700 R68S M90V V230A A334L”: the Tm was found to be 46.9 °C and the “change of melting temperature, mutant” value turned out to be 15.2 °C.

For the substance “Beta-1 adrenergic receptor R68S|A234L|A334L, P07700 R68S A234L A334L”, the melting temperature (Tm) worked out at 41.9 °C and the “change of melting temperature, mutant” value amounted to 10.2 °C.

Take “Beta-1 adrenergic receptor R68S|M90V|Y227A|V230A|F327A|A334L, P07700 R68S M90V Y227A V230A F327A A334L”: the Tm came to 48.2 °C and the “change of melting temperature, mutant” value amounted to 16.5 °C.

“Beta-1 adrenergic receptor Y227A|A234L|A334L, P07700 Y227A A234L A334L”: the melting temperature (Tm) amounted to 41.6 °C and the “change of melting temperature, mutant” value is 9.9 °C.

Take “Beta-1 adrenergic receptor G98A|D322A, P07700 G98A D322A”: the Tm turned out to be 35 °C and the “change of melting temperature, mutant” value was 3.3 °C.

Turning to “Beta-1 adrenergic receptor R68S|Y227A|A234L|A282L, P07700 R68S Y227A A234L A282L”, the Tm was 41.6 °C and the “change of melting temperature, mutant” value is 9.9 °C.

Regarding “Beta-1 adrenergic receptor M90V|F338M, P07700 M90V F338M”, the Tm worked out at 43 °C and the “change of melting temperature, mutant” value is 11.3 °C.

As to “Beta-1 adrenergic receptor G67A|G98A|V230A|D322A, P07700 G67A G98A V230A D322A”, the Tm is 40.9 °C and the “change of melting temperature, mutant” value was found to be 9.2 °C.

Regarding “Beta-1 adrenergic receptor R68S|M90V|V230A|F327A|A334L, P07700 R68S M90V V230A F327A A334L”, the Tm is 47.3 °C and 48.4 °C; the “change of melting temperature, mutant” value is 15.6 °C and 16.7 °C.

As for “Beta-1 adrenergic receptor M90V|Y227A|F338M, P07700 M90V Y227A F338M”, the Tm amounted to 45.2 °C and the “change of melting temperature, mutant” value is 13.5 °C.

For the substance “Beta-1 adrenergic receptor M90V|I129V, P07700 M90V I129V”, the Tm was 40 °C and the “change of melting temperature, mutant” value worked out at 8.3 °C.

For “Beta-1 adrenergic receptor R68S|A334L, P07700 R68S A334L”, the Tm came to 39.1 °C and the “change of melting temperature, mutant” value was 7.4 °C.

Regarding “Beta-1 adrenergic receptor G67A|G98A, P07700 G67A G98A”, the Tm turned out to be 35.5 °C and the “change of melting temperature, mutant” value was determined as 3.8 °C.

Broadly, the Tm is the temperature at the midpoint of the melting transition.
